Results as given in publication PMC5449630 (Nucleic Acids Research, 2017).

Tests used:
[1] = target: T1, DNA ligase IV tandem BRCT domains (residues 654-911) (UniProt P49917 654-911); assay: SEC
T1 sequence (looked up): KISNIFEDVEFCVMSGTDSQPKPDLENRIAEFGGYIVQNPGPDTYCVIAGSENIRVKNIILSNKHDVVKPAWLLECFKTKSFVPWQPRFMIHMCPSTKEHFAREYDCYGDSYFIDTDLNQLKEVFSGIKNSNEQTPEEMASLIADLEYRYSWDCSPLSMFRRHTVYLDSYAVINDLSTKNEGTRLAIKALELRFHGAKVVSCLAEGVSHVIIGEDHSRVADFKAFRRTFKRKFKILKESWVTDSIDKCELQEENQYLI

[2] = target: the molecule itself; assay: SEC
[3] = target: the molecule itself; assay: SEC-MALS

| Binder | binding result [1] | binding result [2] | stoichiometry N [3] |
| --- | --- | --- | --- |
| XRCC4 residues 1-238, non-phosphorylated (domain or fragment, UniProt Q13426 1-238, looked up) MERKISRIHLVSEPSITHFLQVSWEKTLESGFVITLTDGHSAWTGTVSESEISQEADDMAMEKGKYVGELRKALLSGAGPADVYTFNFSKESCYFFFEKNLKDVSFRLGSFNLEKVENPAEVIRELICYCLDTIAENQAKNEHLQKENERLLRDWNDVQGRFEKCVSAKEALETDLYKRFILVLNEKKTKIRSLHNKLLNAAQEREKDIKQEGETAICSEMTADRDPVYDESTDEESE | binds | binds |  |
| CK2-phosphorylated XRCC4 residues 1-238 (domain or fragment, UniProt Q13426 1-238, looked up, phosphoserine at 232, phosphothreonine at 233 (CK2alpha in vitro)) MERKISRIHLVSEPSITHFLQVSWEKTLESGFVITLTDGHSAWTGTVSESEISQEADDMAMEKGKYVGELRKALLSGAGPADVYTFNFSKESCYFFFEKNLKDVSFRLGSFNLEKVENPAEVIRELICYCLDTIAENQAKNEHLQKENERLLRDWNDVQGRFEKCVSAKEALETDLYKRFILVLNEKKTKIRSLHNKLLNAAQEREKDIKQEGETAICSEMTADRDPVYDESTDEESE | binds |  | 2 |
